From patent US20110123676A1, “ENZYMATIC TREATMENT OF A PROTEINACEOUS SUBSTRATE BY ENZYMATIC REMOVAL OF FREE THIOLS” (priority 2008, published 2011)
Entries after “also recorded” stand apart in the source; their conditions may differ.

Key:
myosin [1] = test: SDS-PAGE analysis of protein cross-linking, pork extract; assay type: biochemical; details: for protein cross-linking (SDS-PAGE): treatment with the named enzyme alone, vs reference
Description: (§1) Protein Extractions: • 1. Brine was made using 2% NaCl and 0.3% STPP • 2. 20 g portions of meat were placed in 250 ml baffled shake flasks • 3. 60 ml of brine were added to each shake flask. • 4. The shake flasks were placed on a rotary shaker (Certomat R, Braun Int.); 120 min at room temperature and 180 rpm • 5. The meat-brine suspension was centrifuged for 60 min at 10000 g and 5° C. • 6. The fat particles were removed by filtering the supernatant through a 0.8 mm grid • 7. The meat-protein extract (supernatant) was stored at −18° C. Dialysis was carried out in Slide-A-Lyzer Dialysis Cassette from Pierce (Order nr: 66810). The dialysis was carried out at 4° C. overnight with one shift of dialysis buffer. Sample Preparation/Enzyme Treatment for SDS-PAGE Analysis Enzyme treatment of the protein extracts prior to SDS-PAGE analysis was done as follows: Tyrosinase was added to a final concentration of 15.5 nkat/ml extract (corresponding to 0.015 mg tyrosinase per ml extract) and incubated for 60 min at 40° C. TGase was added to a final concentration of 2.5 nkat/ml extract (corresponding to 0.015 mg TGase pr. ml extract) and incubated for 60 min at 40° C. sulfhydryl oxidase was added to a final concentration of 0.0033 (low sulfhydryl oxidase) or 0.033 (high sulfhydryl oxidase) nkat/ml. It was always added prior to or simultaneously with other enzyme treatment. If added prior to other enzyme treatment, an incubation time of 60 min at room temperature was applied. SDS-Page Analysis: SDS-PAGE was carried out on Pre-cast Novex Bis-Tris gels (Invitrogen, Carlsbad Calif., USA) according to manufacturers' protocol. For non-reducing SDS-PAGE, DTT was left out of the sample buffer.

tyrosinase = test: Tyrosinase spot assay and test of inhibition (skimmed milk); assay type: biochemical, Hypocrea jecorina; details: activity spot test, cysteine and enzyme in contact about 1 min before adding the substrate
Description: Tyrosinase Spot Assay and Test of Inhibition Spot assay of tyrosinase activity was determined by adding 11 nkat of tyrosinase to 1 ml of skimmed milk. Red colour formation within 5-10 seconds is an indication of high of tyrosinase activity. To test for tyrosinase inhibition, either the inhibitor is mixed with tyrosinase before addition to the milk or the inhibitor is added to the milk prior to tyrosinase addition. The inhibitors tested were free cysteine at final concentrations of 1 or 0.1 mM or meat extracts diluted 10 times in the final sample.

myosin [2] = test: SDS-PAGE analysis of protein cross-linking, chicken extract; assay type: biochemical; details: treatment with the named enzyme alone, vs reference
Description: as §1, with “C.” for “C. Dialysis was carried out in Slide-A-Lyzer Dialysis Cassette from Pierce (Order nr: 66810). The dialysis was carried out at 4° C. overnight with one shift of dialysis buffer.”, “SDS-Page Analysis: SDS-PAGE was carried out on Pre-cast Novex Bis-Tris gels (Invitrogen, Carlsbad Calif., USA) according to manufacturers' protocol. For non-reducing SDS-PAGE, DTT was left out of the sample buffer.” left out

myosin [3] = test: SDS-PAGE analysis of protein cross-linking, turkey extract; assay type: biochemical; details: treatment with the named enzyme alone, vs reference
Description: as §1, with “C.” for “C. Dialysis was carried out in Slide-A-Lyzer Dialysis Cassette from Pierce (Order nr: 66810). The dialysis was carried out at 4° C. overnight with one shift of dialysis buffer.”, “SDS-Page Analysis: SDS-PAGE was carried out on Pre-cast Novex Bis-Tris gels (Invitrogen, Carlsbad Calif., USA) according to manufacturers' protocol. For non-reducing SDS-PAGE, DTT was left out of the sample buffer.” left out

myosin [4] = test: SDS-PAGE analysis of protein cross-linking, beef extract; assay type: biochemical; details: for protein cross-linking (SDS-PAGE): treatment with the named enzyme alone, vs reference
Description: as §1, with “C.” for “C. Dialysis was carried out in Slide-A-Lyzer Dialysis Cassette from Pierce (Order nr: 66810). The dialysis was carried out at 4° C. overnight with one shift of dialysis buffer.”

[5] = according to supplier; cited from earlier work
myosin [6] = test: SDS-PAGE analysis of protein cross-linking, cod extract; assay type: biochemical; details: treatment with the named enzyme alone, vs reference
Description: as §1, with “C.” for “C. Dialysis was carried out in Slide-A-Lyzer Dialysis Cassette from Pierce (Order nr: 66810). The dialysis was carried out at 4° C. overnight with one shift of dialysis buffer.”, “SDS-Page Analysis: SDS-PAGE was carried out on Pre-cast Novex Bis-Tris gels (Invitrogen, Carlsbad Calif., USA) according to manufacturers' protocol. For non-reducing SDS-PAGE, DTT was left out of the sample buffer.” left out

myosin [7] = test: SDS-PAGE analysis of protein cross-linking, lamb extract; assay type: biochemical; details: treatment with the named enzyme alone, vs reference
Description: as §1, with “C.” for “C. Dialysis was carried out in Slide-A-Lyzer Dialysis Cassette from Pierce (Order nr: 66810). The dialysis was carried out at 4° C. overnight with one shift of dialysis buffer.”, “SDS-Page Analysis: SDS-PAGE was carried out on Pre-cast Novex Bis-Tris gels (Invitrogen, Carlsbad Calif., USA) according to manufacturers' protocol. For non-reducing SDS-PAGE, DTT was left out of the sample buffer.” left out

[8] = Tyrosinase activity (nkat); assay type: biochemical; details: enzyme used in the examples
Description: One unit of tyrosinase activity—1 nkat is defined as the amount of enzyme that converts 1 nmol of L-DOPA into DOPA-quinone pr. second at pH 7 and 25° C.

[9] = according to supplier; cited from earlier work; remark: listed apart in the source

For O=P(O)(O)OP(=O)(O)OP(=O)(O)O [STPP, Sodium tripolyphosphate], the “effect of removing STPP on tyrosinase cross-linking (SDS-PAGE)” value (myosin [1]; pork extract dialysed against a solution free of STPP) was “no further efficiency of tyrosinase cross-linking was observed”.

In the case of [Cu] [copper], the “effect of extra copper on tyrosinase activity” value (myosin [1]; pork extract, results not shown) is reported as “did not seem to enhance tyrosinase activity”.

For N[C@@H](CS)C(=O)O [cysteine], the “cysteine concentration giving inhibition of the tyrosinase” value (tyrosinase) was “above 10 μM” and the “cysteine concentration giving inhibition of the tyrosinase” value (tyrosinase; listed as free cysteine) was “about 10 μM”.

B1: TGase: TGase (Activa MP; Ajinomoto), well-known protein cross-linking enzyme used as positive reference (protein, UniProt P81453 77-407, looked up)
Protein-glutamine …: DSDDRVTPPAEPLDRMPDPYRPSYGRAETVVNNYIRKWQQVYSHRDGRKQQMTEEQREWLSYGCVGVTWVNSGQYPTNRLAFASFDEDRFKNELKNGRPRSGETRAEFEGRVAKESFDEEKGFQRAREVASVMNRALENAHDESAYLDNLKKELANGNDALRNEDARSPFYSALRNTPSFKERNGGNHDPSRMKAVIYSKHFWSGQDRSSSADKRKYGDPDAFRPAPGTGLVDMSRDRNIPRSPTSPGEGFVNFDYGWFGAQTEADADKTVWTHGNHYHAPNGSLGAMHVYESKFRNWSEGYSDFDRGAYVITFIPKSWNTAPDKVKQGWP
In the case of B1, the “protein cross-linking (SDS-PAGE)” value (myosin [2]) is reported as “efficient”, the “protein cross-linking (SDS-PAGE)” value (myosin [3]) is reported as “efficient” and the “protein cross-linking (SDS-PAGE)” value (myosin [4]) is reported as “efficient”. For the same molecule, the TGase activity [5] was 1666 nkat/g, the “protein cross-linking (SDS-PAGE)” value (myosin [1]; pork extract) was “efficient” and the “protein cross-linking (SDS-PAGE)” value (myosin [6]) was “efficient”. The “protein cross-linking (SDS-PAGE)” value (myosin [7]) was “efficient”.

B2: TrTyr2: Tyrosinase (TrTyr2; VTT, Finland); tyrosinase 2 of Hypocrea jecorina, derived from SEQ ID NO 2 (protein, listed as Hypocrea jecorina)
chain: MLLSASLSALALATVSLAQGTTHIPVTGVPVSPGAAVPLRQNINDLAKSGPQWDLYVQAMYNMSKMDSHDPYSFFQIAGIHGAPYIEYNKAGAKSGDGWLGYCPHGEDLFISWHRPYVLLFEQALVSVAKGIANSYPPSVRAKYQAAAASLRAPYWDWAADSSVPAVTVPQTLKINVPSGSSTKTVDYTNPLKTYYFPRMSLTGSYGEFTGGGNDHTVRCAASKQSYPATANSNLAARPYKSWIYDVLTNSQNFADFASTSGPGINVEQIHNAIHWDGACGSQFLAPDYSGFDPLFFMHHAQVDRMWAFWEAIMPSSPLFTASYKGQSRFNSKSGSTITPDSPLQPFYQANGKFHTSNTVKSIQGMGYSYQGIEYWQKSQAQIKSSVTTIINQLYGPNSGKKRNAPRDFLSDIVTDVENLIKTRYFAKISVNVTEVTVRPAEINVYVGGQKAGSLIVMKLPAEGTVNGGFTIDNPMQSILHGGLRNAVQAFTEDIEVEILSKDGQAIPLETVPSLSIDLEVANVTLPSALDQLPKYGQRSRHRAKAAQRGHRFAVPHIPPL
modifications: signal peptide cleaved
With B2 the “protein cross-linking (SDS-PAGE)” value (myosin [2]) was “varying degrees of myosin-band fading; also recorded: least extensive fading of the myosin band”, the “protein cross-linking (SDS-PAGE)” value (myosin [3]) was “varying degrees of myosin-band fading” and the “tyrosinase cross-linking with or without sulfhydryl oxidase-treatment (SDS-PAGE)” value (myosin [4]) was “able to cross-link proteins”. For the same molecule, the “protein cross-linking (SDS-PAGE)” value (myosin [4]) was “indicating protein cross-linking”, the “tyrosinase activity after dialysis of extract (SDS-PAGE)” value (myosin [1]; pork extract dialysed against the same solution as used for extraction) was “rendered the tyrosinase active” and the “protein cross-linking (SDS-PAGE)” value (myosin [1]; pork extract) was “no cross-linking seems to take place”. For the same molecule, the “tyrosinase activity after dilution of extract (SDS-PAGE)” value (myosin [1]; ten times dilution of the pork extract prior to tyrosinase treatment, results not shown) was “rendered the enzyme active”, the “protein cross-linking (SDS-PAGE)” value (myosin [6]) was “the myosin band disappears entirely; also recorded: fading of the myosin band is most pronounced” and the “protein cross-linking (SDS-PAGE)” value (myosin [7]) was “varying degrees of myosin-band fading; also recorded: least extensive fading of the myosin band”. For the same molecule, the specific activity [8] was “about 300 nkat/mg” and the tyrosinase activity [9] was 1067 nkat/ml.
